Substrate in series [1]: CCCC(=O)Oc1ccc([N+](=O)[O-])cc1
The series is described as follows: purified protein. The series is classed as biochemical, unidentified prokaryotic organism. Conditions: 10 mM potassium phosphate pH 8.0 (stock buffer), 50 °C, 3 min, 0.5 µg/mL enzyme, 0.2-1.8 mM pNPB.

Substrate in series [2]: CCCC(=O)Oc1ccc([N+](=O)[O-])cc1
Put plainly: purified protein. The series is classed as biochemical, Kibdelosporangium banguiense. Particulars: 10 mM potassium phosphate pH 8.0 (stock buffer), 50 °C, 3 min, 0.5 µg/mL enzyme, 0.2-1.8 mM pNPB.

B1: LCC (unidentified prokaryotic organism) (protein)
chain: QSNPYQRGPNPTRSALTADGPFSVATYTVSRLSVSGFGGGVIYYPTGTSLTFGGIAMSPGYTADASSLAWLGRRLASHGFVVLVINTNSRFDYPDSRASQLSAALNYLRTSSPSAVRARLDANRLAVAGHSMGGGGTLRIAEQNPSLKAAVPLTPWHTDKTFNTSVPVLIVGAEADTVAPVSQHAIPFYQNLPSTTPKVYVELDNASHFAPNSNNAAISVYTISWMKLWVDNDTRYRQFLCNVNDPALSDFRTNNRHCQ
notes: wild-type LCC (LCC-ICCG is a separate variant)
As to B1, in the series “purified protein [1]”, the Km was 1053 ± 289 µM, the kcat came to 0.186 ± 0.021 s⁻¹ and the specificity constant (kcat/Km) came to 208 ± 17 M⁻¹ s⁻¹.

B2: KbPETase (APET-14) (Kibdelosporangium banguiense) (protein)
chain: DEIGQAPTAANITGDGSFSTSSSAIFGQSGFGGGTAYYPNTAGKYPVVAFAPGFLSDWNALNWLGPRVASWGFVVVGVNTNTPFDFPDARGDQLLAALNWAVNSAPAAVRDKADGSRRGVSGWSMGGGGTLEALAKDTTGTVKAGVPLAPWHTNKTWSKVTEPVFIIGGQNDSVAAPASHAIPFYNSLGGPKSYLERAGADHFFPTKSNGTVSRAVVSFFKRHVSADTRFTPFLCGFSGLDVSNFRSNSC
notes: predicted signal peptide (SignalP) removed; N-terminal His-tag, pET-28a(+) NdeI/NotI; E. coli BL21(DE3); Ni-NTA purified
For the protein B2, in the series “purified protein [2]”, the Km was determined as 1040 ± 201 µM, the kcat is 0.27 ± 0.021 s⁻¹ and the catalytic efficiency (kcat/Km) was found to be 263 ± 31 M⁻¹ s⁻¹.
